Usually IC50 stands for the concentration that inhibits the measured activity by half. Usually Kd stands for the equilibrium constant for the complex coming apart. As usually defined, the koff is the rate constant with which the complex falls apart. High values mean fast dissociation, low ones slow dissociation. In general, kon refers to the rate constant with which the complex forms. Higher therefore signals fast association. In general, EC50 (read off the curve) refers to the concentration that produces a half-maximal response. Read a low EC50 (read off the curve) as higher potency in that assay. In general, EC50 refers to the concentration needed to bring the measured effect to its halfway point. High values mean weaker potency, low ones greater potency.

From patent publication US20240059796A1 (SHENZHEN MAJORY BIOTECHNOLOGY, published 2024) come the findings set out here.

Experiment [1] concerns the target T1, fusion protein TGF-β1-His (human, UniProt P01137 279-390).
T1 construct: 118 aa: a 112-residue TGF-β1 segment with a C-terminal His6 tag
Briefly: competitive ELISA, TGF-β1-His coated; competitor human TGFβRII-ECD-Fc-biotin 0.1 µg/ml. As for the experimental part:
(§1) The ELISA plate was coated with TGF-β1-His and incubated at 37° C. for 3 hours. After rinsing the plate, 1% BSA was used for blocking at 37° C. for one hour. After rinsing the plate, serially diluted antibody and human TGFβRII-ECD-Fc-biotin (final concentration 0.1 μg/ml) were added and incubated at room temperature for 2 hours. After rinsing the plate, HRP labeled streptavidin SA-HRP (1:2000) working solution was added and incubated at 37° C. for 30 minutes. After rinsing the plate, TMB developing solution was added to develop for 5 min in a dark place, and termination solution was added to terminate the chromogenic reaction. The ELISA plate was immediately put into an ELISA reader, and the optical wavelength of 450 nm was selected to read the OD value of each well of the ELISA plate. The data was analyzed and processed with SoftMax Pro software.

Experiment [2] concerns the target T2, human TGF-β1 (immobilised on the CM5 chip, Biacore) (human, UniProt P01137 279-390).
T2 construct: also called antigen TGF-β1
In words: SPR (Biacore), human TGF-β1 amine-coupled to CM5, 1:1 fit. As for the experimental part: The affinity constants of CT101 with human TGF-β1 were measured with a Biacore system for molecular interaction. HBS-EP served as buffer, human TGF-β1 was immobilized on the surface of CM5 chip by Bicaore standard amino coupling. Binding of antibody CT101 to human TGF-β1 was performed, where the concentration of antibody CT101 was 8-250 nM (2 fold dilution), the flow rate was 30 μl/min, the binding duration was 120 s, and the dissociation duration was 880 s. The chip was regenerated using 10 mM glycine, where PH was 2.7, the flow rate was 30 μl/min, and the duration was 120 s. The affinity constants were obtained by data fitting analysis with a 1:1 model. Data was collected with Biacore Control 2.0 software and analyzed using Biacore T200 Evaluation 2.0 software. The kinetics parameters of antibodies CT102 and CAT192 binding to human TGF-β1 are shown in Table 2, and the test results of specific kinetic parameters of antibody CT101 to human TGF-β1 are shown in FIG. 21.
On the technique in general: Surface plasmon resonance follows binding to a sensor surface in real time, without labels.

For experiment [3], the target named is TGF-β1 (inducer of the TGF-β/Smad reporter signal) (UniProt P01137 279-390, limits assumed). In words: cell-based or functional assay.
Sequence of TGF-β1 (inducer of the TGF-β/Smad reporter signal) (P01137 279-390 limits assumed): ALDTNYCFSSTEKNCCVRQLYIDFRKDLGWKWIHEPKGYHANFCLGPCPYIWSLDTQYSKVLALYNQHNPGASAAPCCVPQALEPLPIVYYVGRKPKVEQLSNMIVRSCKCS
The target of experiment [4] is T1, fusion protein TGF-β1-His. Briefly: competitive ELISA, plate coated with TGF-β1-His, antibody titrated against human TGFβRII-ECD-Fc-biotin (0.1 µg/ml), detection with SA-HRP. The protocol: as §1
On the technique in general: In an ELISA, binding on a coated surface is turned into a signal by an enzyme label.

For experiment [5], the target named is T1, fusion protein TGF-β1-His. Briefly: indirect ELISA, plate coated with TGF-β1-His, detection with enzyme-labeled anti-human IgG. The protocol:
as §1, with “blocking” for “blocking at 37° C.”, “antibody was” for “antibody and human TGFβRII-ECD-Fc-biotin (final concentration 0.1 μg/ml) were”, “at 37° C.” for “at room temperature”, “for 60 minutes.” for “for 2 hours.”, “plate, enzyme-labeled donkey anti-human IgG secondary antibody” for “plate, HRP labeled streptavidin SA-HRP (1:2000)”, “5 minutes” for “5 min”

The target in experiment [6] is T1, fusion protein TGF-β1-His. Briefly: indirect ELISA, TGF-β1-His coated. The protocol: as §1, with “blocking” for “blocking at 37° C.”, “antibody was” for “antibody and human TGFβRII-ECD-Fc-biotin (final concentration 0.1 μg/ml) were”, “at 37° C.” for “at room temperature”, “for 60 minutes.” for “for 2 hours.”, “plate, enzyme-labeled donkey anti-human IgG secondary antibody” for “plate, HRP labeled streptavidin SA-HRP (1:2000)”, “5 minutes” for “5 min”

Experiment [7] has as its target T2, human TGF-β1 (immobilised on the CM5 …). In words: SPR (Biacore), human TGF-β1 amine-coupled to CM5, antibody 250 nM, 1:1 fit. The protocol: The affinity constants of CT101, CT102, CT111, and CT112 with human TGF-β1 were measured with a Biacore molecular interaction meter. HBS-EP served as buffer, human TGF-β1 was immobilized on the surface of CM5 chip by Bicaore standard amino coupling. Binding of antibodies CT101, CT102, CT111, and CT112 to human TGF-β1 was performed, where the concentration of antibodies CT101, CT102, CT111, and CT112 was 250 nM, the flow rate was 30 μl/min, the binding duration was 120 s, and the dissociation duration was 880 s. The chip was regenerated by using 10 mM glycine, where PH was 2.7, the flow rate was 30 μl/min, and the duration was 120 s. The affinity constants were obtained by data fitting analysis with a 1:1 model. Data was collected with Biacore Control 2.0 software and analyzed using Biacore T200 Evaluation 2.0 software. The kinetics parameters of antibodies CT101, CT102, CT111, and CT112 binding to human TGF-β1 are shown in Table 2, and the test results of specific kinetic parameters of antibodies CT101, CT102, CT111, and CT112 binding to human TGF-β1 are shown in FIG. 7.

T2 sequence (P01137 279-390 limits assumed): as above
T1 sequence (P01137 other isoform, or with tags, fused parts or gaps limits assumed): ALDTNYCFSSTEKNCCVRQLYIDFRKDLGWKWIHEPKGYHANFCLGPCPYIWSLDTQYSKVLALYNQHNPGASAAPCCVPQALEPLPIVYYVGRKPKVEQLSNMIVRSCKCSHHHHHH

B1: anti-TGF-β1 antibody CAT192 (antibody, human IgG4, V domains shown)
VH: EVQLVESGGGVVQPGRSLRLSCAASGFTFSSYGMHWVRQAPGKELEWVAVISYDGSIKYYADSVKGRFTISRDNSKNTLYLQMNSLRAEDTAVYYCARTGEYSGYDTDPQYSWGQGTTVTVSS
VL: EIVLTQSPSSLSASVGDRVTITCRSSQGIGDDLGWYQQKPGKAPILLIYGTSTLQSGVPSRFSGSGSGTDFTLTINSLQPEDFATYYCLQDSNYPLTFGGGTRLEIK
notes: The background section calls CAT192 a human IgG4 monoclonal antibody
In turn, B1 came in with an IC50 in experiment [1] of 0.105 nM. In experiment [2], this molecule registered a Kd of 0.8 nM, a koff of 2.4e-05 s⁻¹ and a kon of 30000 M⁻¹ s⁻¹. In experiment [3], the “IC50, TGF-β/Smad luciferase reporter in HEK293-CD4 cells” value came out at 0.25 nM and the “IC50, TGF-β/Smad luciferase reporter in HEK293 cells” value (from here on “IC50 … in HEK293 cells”) was approximately 0.25 nM. For the same molecule, the “IC50 (read off the curve)” value in experiment [4] is approximately 0.09 nM. Besides, in experiment [5], the “EC50 (read off the curve)” value was approximately 0.08 nM. In addition, in experiment [6], the midpoint of the response, the EC50, lay at 0.0845 nM.

B2: bifunctional antibody CT111 (bispecific antibody, human IgG4 S228P, kappa)
light: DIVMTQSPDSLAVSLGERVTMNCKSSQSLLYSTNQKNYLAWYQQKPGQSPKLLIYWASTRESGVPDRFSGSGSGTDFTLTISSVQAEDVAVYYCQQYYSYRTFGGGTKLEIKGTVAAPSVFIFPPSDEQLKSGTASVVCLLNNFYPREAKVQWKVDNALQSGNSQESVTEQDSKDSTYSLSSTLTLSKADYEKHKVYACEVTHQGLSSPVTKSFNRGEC
heavy: QVQLQQSGPEVVKPGASVKMSCKASGYTFTSYVIHWVRQKPGQGLDWIGYINPYNDGTDYDEKFKGKATLTSDTSTSTAYMELSSLRSEDTAVYYCAREKDNYATGAWFAYWGQGTLVTVSSASTKGPSVFPLAPCSRSTSESTAALGCLVKDYFPEPVTVSWNSGALTSGVHTFPAVLQSSGLYSLSSVVTVPSSSLGTKTYTCNVDHKPSNTKVDKRVESKYGPPCPPCPAPEFLGGPSVFLFPPKPKDTLMISRTPEVTCVVVDVSQEDPEVQFNWYVDGVEVHNAKTKPREEQFNSTYRVVSVLTVLHQDWLNGKEYKCKVSNKGLPSSIEKTISKAKGQPREPQVYTLPPCQEEMTKNQVSLWCLVKGFYPSDIAVEWESNGQPENNYKTTPPVLDSDGSFFLYSALTVDKSRWQEGNVFSCSVMHEALHNHYTQKSLSLSLGK
chain: EVQLVESGGGVVQPGRSLRLSCAASGFTFSSYGMHWVRQAPGKELEWVAVISYDGSIKYYADSVKGRFTISRDNSKNTLYLQMNSLRAEDTAVYYCARTGEYSGYDTDPQYSWGQGTTVTVSSGGGGSGGGGSGGGGSEIVLTQSPSSLSASVGDRVTITCRASQGIGDDLGWYQQKPGKAPILLIYGTSTLQSGVPSRFSGSGSGTDFTLTINSLQPEDFATYYCLQDSNYPLTFGGGTRLEIKYGPPCPPCPAPEFLGGPSVFLFPPKPKDTLMISRTPEVTCVVVDVSQEDPEVQFNWYVDGVEVHNAKTKPREEQFNSTYRVVSVLTVLHQDWLNGKEYKCKVSNKGLPSSIEKTISKAKGQPREPQVCTLPPSQEEMTKNQVSLSCAVKGFYPSDIAVEWESNGQPENNYKTTPPVLDSDGSFKLVSRLTVDKSRWQEGNVFSCSVMHEALHNHYTQKSLSLSLGK
Take B2: the “IC50 … in HEK293 cells” value in experiment [3] was approximately 0.8 nM.

B3: bifunctional antibody CT112 (bispecific antibody, human IgG4 S228P, kappa)
light: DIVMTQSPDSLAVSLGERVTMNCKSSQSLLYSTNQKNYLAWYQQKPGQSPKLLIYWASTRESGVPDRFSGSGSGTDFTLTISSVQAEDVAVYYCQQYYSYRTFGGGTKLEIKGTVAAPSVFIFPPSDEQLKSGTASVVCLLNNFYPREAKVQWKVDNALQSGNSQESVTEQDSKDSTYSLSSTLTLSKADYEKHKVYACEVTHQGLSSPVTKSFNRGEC
heavy: B2 heavy
chain 1: EVQLVESGGGVVQPGRSLRLSCAASGFTFSSYGMHWVRQAPGKELEWVAVISYDGSIKYYADSVKGRFTISRDNSKNTLYLQMNSLRAEDTAVYYCARTGEYSGYDTDPQYSWGQGTTVTVSGGSGTVAAPSVFIFPPSDEQLKSGTASVVCLLNNFYPREAKVQWKVDNALQSGNSQESVTEQDSKDSTYSLSSTLTLSKADYEKHKVYACEVTHQGLSSPVTKSFNRGECSKYGPPCPPCPAPEFLGGPSVFLFPPKPKDTLMISRTPEVTCVVVDVSQEDPEVQFNWYVDGVEVHNAKTKPREEQFNSTYRVVSVLTVLHQDWLNGKEYKCKVSNKGLPSSIEKTISKAKGQPREPQVCTLPPSQEEMTKNQVSLSCAVKGFYPSDIAVEWESNGQPENNYKTTPPVLDSDGSFKLVSRLTVDKSRWQEGNVFSCSVMHEALHNHYTQKSLSLSLGK
chain 2: EIVLTQSPSSLSASVGDRVTITCRSSQGIGDDLGWYQQKPGKAPILLIYGTSTLQSGVPSRFSGSGSGTDFTLTINSLQPEDFATYYCLQDSNYPLTFGGGTRLEIKGSSASTKGPSVFPLAPCSRSTSESTAALGCLVKDYFPEPVTVSWNSGALTSGVHTFPAVLQSSGLYSLSSVVTVPSSSLGTKTYTCNVDHKPSNTKVDKRVES
notes: also called IgG CrossMab
On to B3, for which, in experiment [3], the “IC50 … in HEK293 cells” value is approximately 1 nM. In experiment [7], this molecule had a Kd of 1.97 nM, a koff of 5.9e-05 s⁻¹ and a kon of 30000 M⁻¹ s⁻¹.
